Patent EP4545090A1 (Universität Leipzig, dated 2025)

T1: IFNGR1, human, endogenous in podocytes (human, UniProt P15260 18-489)
T1 construct: whole, on cells
T1 sequence (looked up): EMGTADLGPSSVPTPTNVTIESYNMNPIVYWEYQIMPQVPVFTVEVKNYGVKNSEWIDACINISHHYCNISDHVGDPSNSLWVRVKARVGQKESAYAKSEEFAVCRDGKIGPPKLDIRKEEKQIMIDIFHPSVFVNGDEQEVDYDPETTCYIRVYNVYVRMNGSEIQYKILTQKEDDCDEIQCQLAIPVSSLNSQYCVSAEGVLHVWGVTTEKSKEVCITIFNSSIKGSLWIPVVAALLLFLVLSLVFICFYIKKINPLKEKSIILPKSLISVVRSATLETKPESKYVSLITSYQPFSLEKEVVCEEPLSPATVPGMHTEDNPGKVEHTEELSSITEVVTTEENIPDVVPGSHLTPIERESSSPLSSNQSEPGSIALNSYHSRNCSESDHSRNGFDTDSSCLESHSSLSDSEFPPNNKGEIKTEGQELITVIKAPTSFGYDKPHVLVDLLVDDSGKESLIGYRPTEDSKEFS


Experiments:
[1] = molecular target: IFNAR1 as used in the microscale thermophoresis binding assay (Homo sapiens (Human)) (UniProt P17181); experiment: microscale thermophoresis binding assay
[2] = molecular target: T1, IFNGR1, human, endogenous in podocytes; experiment: TF co-immunoprecipitation from human podocyte lysates, immunoblot

Kd [1] [nM] | binding result [2] | Molecule
1160 |  | tissue factor (TF) as used in the microscale thermophoresis binding assay (from UniProt P13726 33-251) (receptor)
 | no binding | tissue factor (TF), human, as expressed by cells (receptor, also called hTF; human TF) SGTTNTVAAYNLTWKSTNFKTILEWEPKPVNQVYTVQISTKSGDWKSKCFYTTDTECDLTDEIVKDVKQTYLARVFSYPAGNVESTGSAGEPLYENSPEFTPYLETNLGQPTIQSFEQVGTKVNVTVEDERTLVRRNNTFLSLRDVFGKDLIYTLYYWKSSSSGKKTAKTNTNEFLIDVDKGENYCFSVQAVIPSRTVNRKGTDSPVECMGQEKGEFREIFYIIGAVVFVVIILVIILAISLHKCRKAGVGQSWKENSPLNVS
